# Values of other authors in paper PMC3461832.
# How the values were obtained:
# [1] = biological target: fibrinogen Bβ chain 6-20 (Homo sapiens) (UniProt P02675)
# [2] = biological target: fibrinogen Bβ chain peptide β1-25 1-25 (Homo sapiens) (UniProt P02675)
# Chain of UniProt P02675 (P02675 1-25): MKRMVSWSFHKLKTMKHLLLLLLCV
substance,measurement,setting,value
SdrG (from UniProt Q9KI13),Kd,[1],90 nM
same,Kd,[2],140 nM
